# Assay results reported in patent US20140294977A1, “Radiation-Sterilized Biodegradable Drug Delivery Composition” (DURECT CORPORATION, priority 2011, published 2014).
# Test: Gamma-radiation stability of hGH:protamine powders and SAIB/BB/PLA suspensions by RPLC
# Assay type: physicochemical
# Settings: after gamma irradiation at 15 kGy
# Procedure: Aliquots of 3 mL each of the bulk hGH solution in buffer from BresaGen were transferred into 5 mL type-Hypak BD glass syringes and lyophilized using the lyophilization cycle provided in Table 1 (optimized for hGH) to fit the steps provided with an FTS lyophilizer, Dura Stop, MP Stoppering Tray Dryer, Stone Ridge, N.Y.
# 100 mg of BresaGen hGH powder was placed in a 15 mL wide-mouth glass jar. 5.5 mL of 25 mM NH4HCO3 (pH ˜7.5) solution was added and the compound was stirred for 30 min at room temperature, 400 rpm until it became clear. Then 1.02 mL of protamine sulfate solution (conc. 10 mg/mL) was slowly added to form a white precipitate. The resulting suspension was stirred for 30 min to complete the complexation reaction. 0.19 mL of 290 mM sucrose solution was then added while stirring at 400 rpm. When the solution was clear, 15.2 μL of 10% polysorbate 20 solution was added. In powders with methonine formulation, 1 wt %-35 wt % of methionine relative to the total protein weight was added to the complexed suspension. […]
# Stability of the above formulations was determined using RPLC analysis. […]
substance,measurement,value
"control hGH powder: lyophilized human growth hormone powder (BresaGen) without complex, used as control",purity of hGH / impurity peaks in RPLC spectra (FIG. 1),showed an impurity peak around 8.15 min
